In US20050215629:

System: synthetic phosphotyrosine peptide Arg-Arg-Leu-Ile-Glu-Asp-Ala-Glu-Tyr-Ala-Ala-Arg-Gly, wherein the tyrosine is phosphorylated

GST fusion protein of SHP-2
PTPase activity (malachite green, absorbance at 660 nm): 660 nm absorbance approximately 0.6 above background (0.03)

GST fusion protein of mitogen-activated protein kinase phosphatase 1 (MKP1)
PTPase activity (malachite green, absorbance at 660 nm): 660 nm absorbance approximately 0.6 above background (0.03)

GST fusion protein of SHP-1 catalytic domain (SHP-1cata)
in vitro PTPase assay: the two proteins in their dephosphorylation of the phosphotyrosine peptide substrate in vitro

GST fusion protein of SHP-1
PTPase activity (malachite green, absorbance at 660 nm): 660 nm absorbance approximately 0.6 above background (0.03)

GST fusion protein of protein tyrosine phosphatase 1B (PTP1B)
PTPase activity (malachite green, absorbance at 660 nm): 660 nm absorbance approximately 0.6 above background (0.03)
